Values of other authors as cited in article PMC3317066.

Tests used:
[1] = target: falcipain-3 (Plasmodium falciparum) (UniProt Q8IIL0)
[2] = target: falcipain-2 (Plasmodium falciparum) (UniProt Q8I6U4)
[3] = target: methemoglobin (Homo sapiens) (UniProt P69905)
[4] = target: hemoglobin (Homo sapiens) (UniProt P69905)

Sequence of UniProt Q8IIL0 (Q8IIL0 243-492): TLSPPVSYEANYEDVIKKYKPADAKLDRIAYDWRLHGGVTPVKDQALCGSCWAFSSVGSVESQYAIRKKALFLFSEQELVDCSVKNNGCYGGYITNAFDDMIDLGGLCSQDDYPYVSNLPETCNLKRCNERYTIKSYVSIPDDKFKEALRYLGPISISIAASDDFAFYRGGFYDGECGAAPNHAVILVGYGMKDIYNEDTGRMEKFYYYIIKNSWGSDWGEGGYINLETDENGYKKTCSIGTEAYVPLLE

Substance	Ki [1]	Ki [2]	Kd [3]	Kd [4]
cystatin (from UniProt P01038)	100 nM	6.5 nM	–	–
falcipain-2 (from UniProt Q8I6U4)	–	–	800 nM	3300 nM
